Measurements reported in the supplement of paper PMC10201428.
± gives the standard deviation of the averaged measurements.

Tests used:
[1] = tested on: VchCAST RNA-guided transposition machinery (E. coli BL21(DE3) host, lacZ target); test: relative integration efficiency (T-RL orientation) vs wild-type transposon end (log2 (normalized fold change)); transposon end mutated: right end (5 bp flank + 75 bp right end); higher = more efficient transposition
Method in brief: (§1)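 Barcode abundances in input plasmids and in genomic integration junctions were obtained by PCR amplification and Illumina sequencing. These came from E. coli BL21(DE3) co-transformed with a T7-driven effector plasmid and a pUC57 donor carrying 1549 left-end or 1849 right-end transposon variants, then plated with 0.1 mM IPTG at 37°C for 18 h. Relative integration efficiency is the output/input fold change, normalised to reference barcodes and log-transformed.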

[2] = tested on: VchCAST RNA-guided transposition machinery (E. coli BL21(DE3) host, lacZ target); test: relative integration efficiency (T-LR orientation) vs wild-type transposon end (log2 (normalized fold change)); transposon end mutated: right end (5 bp flank + 75 bp right end); higher = more efficient transposition
Method in brief: as §1

Sequence | relative integration efficiency (log2) [1] | relative integration efficiency (log2) [2]
ACATTTGTGGATACAACCCTAAAATGATAATTACACCCATAAATTGATAATTATCACACCCAATTTAACTATAACGCTCTGATCATAGTCAGACCAACATTGCTACGACCCGTATTCGCACCGACAC | -1.73 ± 0.26 | 1.32 ± 0.36
ACATTTGTTGATACCACCATAAAATGATAATTCCACCCATAAATTGATAATTATCACACCCAATTTAACTATAACGCTCTGATCATAGTCAGACCAACATTGCTACGACCCGTATTCGCACCGACAC | -1.1 ± 0.17 | 2.52 ± 0.15
ACATTTGTTGATACAACCATAAGTTGATATTTTCACCCATAAATTGATATTGCTCACAACCATAAAGTGATATTTACTCTGATCATAGTCAGACCAACATTGCTACGACCCGTATTCGCACCGACAC | -0.377 ± 0.053 | -0.333 ± 0.49
ACATTTGTCGATACAACCATAAAATGATAATTACACCCATAAATGGATCATTATCACACCCAATTTAACTATAACGCTCTGATCATAGTCAGACCAACATTGCTACGACCCGTATTCGCACCGACAC | -1.61 ± 0.16 | 0.97 ± 0.063
ACATTTGTTGATACAACCATAAAGTGATATTTACACCCATAAATTGATAATTATCACAACCATAAAATGATAATTACTCTGATCATAGTCAGACCAACATTGCTACGACCCGTATTCGCACCGACAC | 0.256 ± 0.0071 | -0.112 ± 0.54
ACATTTGTTGATACACCCATAAAATGATAATTACAACCATAAATTGATAATTATCACAACCATAAATTGATATTGCCTCTGATCATAGTCAGACCAACATTGCTACGACCCGTATTCGCACCGACAC | -0.707 ± 0.2 | -0.642 ± 0.019
ACATTTGTTGATACAACCATAAGTTGATATTTTCACCCATAAATTGATATTGCTCACACCCATAAATTGATATTGCCTCTGATCATAGTCAGACCAACATTGCTACGACCCGTATTCGCACCGACAC | -0.468 ± 0.17 | 0.258 ± 0.12
ACATTTGTTGATACAACCATAAAATGATAATTTGACCCATAAATTGATAATTATCACACCCATAAATTGATATTGCCTCTGATCATAGTCAGACCAACATTGCTACGACCCGTATTCGCACCGACAC | -0.692 ± 0.19 | -0.216 ± 0.13
ACATTTGTTGATACATGGTTAAAATGATAATTACACCCATAAATTGATAATTATCACACCCATAAATTGATATTGCCTCTGATCATAGTCAGACCAACATTGCTACGACCCGTATTCGCACCGACAC | -1.62 ± 0.088 | -2.05 ± 0.37
ACATTTGTTGATACAACCATAAAATGATAATTACACCCATAAATTCATAATTATCACCCCCAATTTAACTATAACGCTCTGATCATAGTCAGACCAACATTGCTACGACCCGTATTCGCACCGACAC | -1.95 ± 0.33 | 1.06 ± 0.079
ACATTTGTTGATACAACCATAAAATGATAATTACACCCATAAAGGTCTAATTATCACACCCATAAATTGATATTGCCTCTGATCATAGTCAGACCAACATTGCTACGACCCGTATTCGCACCGACAC | -1.77 ± 0.13 | -1.72 ± 0.31
ACATTTGTTCATACAACCATAAAATGATAATTACACCCATAAATGGATAATTATCACACCCAATTTAACTATAACGCTCTGATCATAGTCAGACCAACATTGCTACGACCCGTATTCGCACCGACAC | -1.57 ± 0.27 | -0.42 ± 0.41
ACATTTGTTGATACAACCATAAAATGAATATTACACCCATAAATTGATAATTATCACACCCATAAATTGATATTGCCTCTGATCATAGTCAGACCAACATTGCTACGACCCGTATTCGCACCGACAC | -0.772 ± 0.072 | -0.52 ± 0.4
ACATTTGTTGATACAACCATAAAATGATAATTACAACCATATATTGATATCTCTCACAACCATATATTGATATCTCCTCTGATCATAGTCAGACCAACATTGCTACGACCCGTATTCGCACCGACAC | -0.574 ± 0.17 | 0.0166 ± 0.61
ACATTTGTTGATACAACCATACCCGTCGCCGGCACAAACGCCCGGTCGCCGGCGACACAAACGCCCGGTCGCGGTAAGAGGATCATAGTCAGACCAACATTGCTACGACCCGTATTCGCACCGACAC | -6.48 ± 0.07 | -4.78 ± 0.59
ACATTTGTTGATACAACCATAAAATCATAATTACACCCATAAATTGATAATTATCACACCCCATTTAACTATAACGCTCTGATCATAGTCAGACCAACATTGCTACGACCCGTATTCGCACCGACAC | -2.85 ± 0.24 | 1.21 ± 0.17
ACATTTGTTGATACAACCATAAAATGATAATTACACCCATAAATTGATAATTATCACACCCATAAATTGATATTGCCTCTGATCATAGTCAAACTGTATTTATATACAGTTGGACCAGCACCGACAC | 0.00825 ± 0.2 | 0.414 ± 0.18
ACATTGGTGGATACAACCATAAAATGATAATTACACCCATAAATTCATAATTATCACACCCAATTTAACTATAACGCTCTGATCATAGTCAGACCAACATTGCTACGACCCGTATTCGCACCGACAC | -6.19 ± 0.92 | -4.36 ± 0.31
ACATTTGTTGATACAACCATAAAATGATAATTTCACCCATAAATTGATAATTTTCACACCCATAAATTGATATTGGCTCTGATCATAGTCAGACCAACATTGCTACGACCCGTATTCGCACCGACAC | -0.335 ± 0.13 | -0.0323 ± 0.56
ACATTTGTGGATACAACCATAAAATGATAATTACACCCATAAATTGATCATTATCACACCCAATTTAACTATAACGCTCTGATCATAGTCAGACCAACATTGCTACGACCCGTATTCGCACCGACAC | -1.46 ± 0.31 | 1.89 ± 0.19
ACATTTGTTGATACAACCATAAAATGATAATTAATAATTATTTATAATCAGCAACTTAACCACAAAACACCCATAAATTGATAATTAACAACACCCATAAATTGATATTGCCTCTGATCATAGTCAG | -4.56 ± 0.76 | -1.12 ± 0.49
ACATTTGTTGATACAACCATAAAATGATAATTACACCCATAAATTGATAATTATCACACCCATAAATTGATATTGCCTCTGATAACTTCGTATAAGGTATACTATACGAAGTTATTCGCACCGACAC | -0.433 ± 0.28 | 1.55 ± 0.38
ACATTTGTTGATACAACCATAAAATGATAATTAATAATTATTTATAATCAGCACCCATAAATTGATAATTATCACACCCATAAATTGATATTGCCTCTGATCATAGTCAGACCAACATTGCTACGAC | -3.29 ± 0.1 | -0.258 ± 0.51
ACATTTGTTGATACAACCATAACCTGATAATTACACCCATAACGTGATAATTATCACACCCATAACGTGATATTGCCTCTGATCATAGTCAGACCAACATTGCTACGACCCGTATTCGCACCGACAC | -0.513 ± 0.02 | -0.339 ± 0.3
ACATTTGTTGATACCACCATAAAATGGTAATTCCACCCCTACATTGATAATTATCACACCCAATTTAACTATAACGCTCTGATCATAGTCAGACCAACATTGCTACGACCCGTATTCGCACCGACAC | -4.47 ± 0.45 | -0.833 ± 0.022
ACATTTGTTGATACTTGGATAAAATGATAATTACACCCATAAATTGATAATTATCACACCCATAAATTGATATTGCCTCTGATCATAGTCAGACCAACATTGCTACGACCCGTATTCGCACCGACAC | -0.966 ± 0.23 | -1.07 ± 0.2
ACATTTGTTGATACAACCATAAGTTGATATTTTCAACCATAAAGTGATATTTATCAGTGGGTATTTAACTATAACGCTCTGATCATAGTCAGACCAACATTGCTACGACCCGTATTCGCACCGACAC | -0.687 ± 0.11 | 2.69 ± 0.17
